# Reference: patent US20190359686A1 (INNOVATIVE TECHNOLOGIES IN BIOLOGICAL SYSTEMS SL, published 2019)
# Where no end group is shown, it is not given here.
# T1: F2R like trypsin receptor 1 (PAR2) (UniProt P55085 37-397)
# T1 sequence (looked up): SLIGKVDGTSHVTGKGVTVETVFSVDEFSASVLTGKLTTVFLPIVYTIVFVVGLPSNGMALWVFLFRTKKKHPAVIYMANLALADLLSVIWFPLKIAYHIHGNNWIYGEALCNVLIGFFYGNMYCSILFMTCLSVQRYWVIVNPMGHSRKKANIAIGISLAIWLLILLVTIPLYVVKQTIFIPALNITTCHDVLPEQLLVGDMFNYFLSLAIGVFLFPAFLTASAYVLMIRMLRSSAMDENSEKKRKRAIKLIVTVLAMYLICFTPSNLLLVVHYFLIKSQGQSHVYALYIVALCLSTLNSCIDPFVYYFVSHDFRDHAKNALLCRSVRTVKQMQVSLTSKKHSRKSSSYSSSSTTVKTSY
# Target: T1, F2R like trypsin receptor 1 (PAR2)
# Test: cell-based or functional assay
EC50 SLIGRL-NH2 calcium assay [µM],EC50 SLIGRL-NH2 ß-Arrestin assay [µM],EC50 SLIGKV calcium assay [µM],EC50 SLIGKV ß-Arrestin assay [µM],Binder
4.06,12.7,–,–,SLIGRL-NH2 [SLIGRL-NH2]
–,–,1.67,4.83,SLIGKV
